# Data published in PMC12660843, “Using phage display for rational engineering of a higher-affinity humanized 3’ phosphohistidine-specific antibody” (Communications Chemistry, 2025).
# *1 amine or outer side, *2 acyl side, *3 side chain or, on linkers, in order; H or OH if unused. Where no end group is shown, it is not given here. [ ]: non-standard residue; d: D form. The star is where a group is joined. 3‑pTza = 3-phosphotriazolyl alanine (also given as 3-phosphoryl-triazolylalanine); 3‑pHis = 3-phosphohistidine, O=C([C@H](Cc1cn(P(=O)(O)O)cn1)N[*:1])[*:2]; Biotin = O=C1N[C@H]2[C@H](CS[C@H]2CCCCC(=O)*)N1; Ahx = NCCCCCC(=O)O
# T1: 3-pHis peptide (Biotin-AminocaproicAcid-A.G.A.G.H.A.G.A.G phosphorylated by phosphoramidate)
# T1 construct: His-peptide, phosphorylated on His5; the phosphoramidate reaction gives a mixture of non-phosphorylated, 1-pHis, 3-pHis and di-pHis peptide; also called Biotinylated ACLYana-3-pHis; ACLYana-pHis; source: synthetic peptide, phosphorylated with potassium phosphoramidate; not shown: biotin, N-terminal, kept
# T1 peptide: {Biotin-Ahx}-AGAG[3‑pHis]AGAG
# T2: 3-pTza peptide (Biotin-AminocaproicAcid-A.G.A.G.3-pTza.A.G.A.G)
# T2 chain: {Biotin-Ahx}-AGAG[3‑pTza]AGAG
# How the values were obtained:
# [1] = target: 3-pTza peptide (Biotin-AminocaproicAcid-A.G.A.G.3-pTza.A.G.A.G); test: BLI; biotinylated peptide captured on streptavidin biosensors at 20 nM; IgG in solution at 20-200 nM; Octet HTX; 1x HBS-T, 1% BSA
# [2] = target: 3-pTza peptide (Biotin-AminocaproicAcid-A.G.A.G.3-pTza.A.G.A.G); test: BLI; Octet HTX; biotinylated peptides captured on streptavidin biosensors at 20 nM; IgG in solution, 20-200 nM; 1x HBS-T, 1% BSA
# [3] = target: T3, 3-pHis form of the a-subunit of SCS (30 kDa) (Homo sapiens (HEK293T, endogenous), UniProt P53597, 3-phosphohistidine (site not stated)); test: immunoblot; HEK293T whole cell lysate, 30 µg, alkaline 12% SDS-PAGE and alkaline blotting at 4 °C; 0.5 µg/mL IgG as primary antibody, 1 h at room temperature; HRP secondary antibody; conditions: one partner purified
# T3 construct: alpha subunit of SCS (succinyl-CoA synthetase), 30 kDa band on the immunoblot; source: endogenous, HEK293T lysate
# T3 sequence (P53597 41-346): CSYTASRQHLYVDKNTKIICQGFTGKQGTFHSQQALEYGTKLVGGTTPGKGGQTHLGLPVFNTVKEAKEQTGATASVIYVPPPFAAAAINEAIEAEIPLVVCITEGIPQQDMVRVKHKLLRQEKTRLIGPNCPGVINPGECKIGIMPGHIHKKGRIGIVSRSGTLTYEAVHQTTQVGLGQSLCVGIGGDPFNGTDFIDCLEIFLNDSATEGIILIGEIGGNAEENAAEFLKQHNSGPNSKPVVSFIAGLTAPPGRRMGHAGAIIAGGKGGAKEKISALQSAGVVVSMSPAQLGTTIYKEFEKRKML
# [4] = target: T4, 3-pHis form of ACLY (120 kDa) (Homo sapiens (HEK293T, endogenous), UniProt P53396, 3-phosphohistidine (site not stated)); test: as above; conditions: one partner purified
# T4 construct: ACLY (ATP-citrate lyase), 120 kDa band on the immunoblot; source: endogenous, HEK293T lysate
# T4 sequence (P53396 whole entry): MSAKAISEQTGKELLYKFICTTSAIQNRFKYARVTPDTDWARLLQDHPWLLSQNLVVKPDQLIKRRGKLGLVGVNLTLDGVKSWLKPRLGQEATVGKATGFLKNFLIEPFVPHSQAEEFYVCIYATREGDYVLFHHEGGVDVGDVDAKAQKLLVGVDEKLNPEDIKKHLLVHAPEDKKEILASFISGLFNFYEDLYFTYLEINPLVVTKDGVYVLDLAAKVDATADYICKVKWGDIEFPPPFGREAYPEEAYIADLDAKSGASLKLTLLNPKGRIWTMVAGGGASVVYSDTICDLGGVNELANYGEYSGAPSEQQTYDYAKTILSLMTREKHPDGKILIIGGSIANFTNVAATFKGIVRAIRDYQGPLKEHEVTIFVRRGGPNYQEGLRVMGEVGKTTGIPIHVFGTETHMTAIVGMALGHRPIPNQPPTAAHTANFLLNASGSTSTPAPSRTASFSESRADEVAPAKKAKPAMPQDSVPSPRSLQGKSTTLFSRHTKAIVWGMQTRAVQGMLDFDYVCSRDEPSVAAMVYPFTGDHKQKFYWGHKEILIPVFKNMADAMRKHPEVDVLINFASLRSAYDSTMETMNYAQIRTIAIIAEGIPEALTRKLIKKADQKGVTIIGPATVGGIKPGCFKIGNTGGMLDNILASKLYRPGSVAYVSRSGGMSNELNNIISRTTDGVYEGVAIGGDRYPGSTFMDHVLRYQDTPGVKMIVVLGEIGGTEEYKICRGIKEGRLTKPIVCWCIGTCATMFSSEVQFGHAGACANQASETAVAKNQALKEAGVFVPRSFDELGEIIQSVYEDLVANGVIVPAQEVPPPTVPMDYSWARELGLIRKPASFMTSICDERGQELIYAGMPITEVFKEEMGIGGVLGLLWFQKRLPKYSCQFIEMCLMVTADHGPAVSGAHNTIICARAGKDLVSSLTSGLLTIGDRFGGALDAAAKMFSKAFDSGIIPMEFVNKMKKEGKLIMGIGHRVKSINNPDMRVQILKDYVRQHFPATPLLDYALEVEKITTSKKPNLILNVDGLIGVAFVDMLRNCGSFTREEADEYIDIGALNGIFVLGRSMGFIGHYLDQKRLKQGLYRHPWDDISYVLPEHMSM
# [5] = target: T1, 3-pHis peptide …; test: BLI; Octet RED96e; biotinylated peptides captured on streptavidin biosensors at 20 nM; Fab in solution, 20-200 nM; 1x HBS-T, 1% BSA
# [6] = target: 3-pTza peptide (Biotin-AminocaproicAcid-A.G.A.G.3-pTza.A.G.A.G); test: as above
# [7] = target: T2, 3-pTza peptide …; test: BLI; biotinylated peptide captured on streptavidin biosensors at 20 nM; IgG in solution at 20-200 nM; Octet HTX; 1x HBS-T, 1% BSA; conditions: both partners purified
# [8] = target: T1, 3-pHis peptide …; test: as above; conditions: both partners purified
binder,measurement,setting,value
"hSC44.1 IgG (antibody, V domains shown) VH: EVQLVESGGGLVQPGGSLRLSCTASGFSIDSYGFSWVRQAPGKGLEHIGYLTAGGRAFYASWAKSRSTITRNTNENTVTLKMNSLRAEDTAVYYCAKLGTGSPIAIWGQGTLVTVSS VL: DIQMTQSPSSLSASVGDRVTITCRASQSVWRNKNVAWYQQKPGKAPKRLIYAIASLYSGVPSRFSGSGSGTDFTLTISSLQPEDFATYYCVGHYGSENDAYYAFGQGTKVEIK",Kd,[1],0.588 nM
same,koff,[1],8.32e-05 s⁻¹
same,kon,[1],141000 M⁻¹ s⁻¹
"hSC44.22 IgG (antibody, V domains shown) VH: EVQLVESGGGLVQPGGSLRLSCTASGFSIDSYGFSWVRQAPGKGLEHIGYLTAGGRAFYASWAKSRSTITRNTNENTVTLKMNSLRAEDTAVYYCAKLGTGTPVAIWG VL: DIQMTQSPSSLSASVGDRVTITCRASQSVWRNKNVAWYQQKPGKAPKRLIYAIASLYSGVPSRFSGSGSGTDFTLTISSLQPEDFATYYCVGHYGSENDAYYAFGQGTKVEIK",Kd,[1],0.495 nM
same,koff,[1],4.49e-05 s⁻¹
same,kon,[1],90600 M⁻¹ s⁻¹
"hSC44.8 IgG (antibody, V domains shown) VH: EVQLVESGGGLVQPGGSLRLSCTASGFSIDSYGFSWVRQAPGKGLEHIGYLTAGGRAFYASWAKSRSTITRNTNENTVTLKMNSLRAEDTAVYYCAKIGTGSRVAIWG VL: DIQMTQSPSSLSASVGDRVTITCRASQSVWRNKNVAWYQQKPGKAPKRLIYAIASLYSGVPSRFSGSGSGTDFTLTISSLQPEDFATYYCVGHYGSENDAYYAFGQGTKVEIK",Kd,[1],0.185 nM
same,koff,[1],6.66e-05 s⁻¹
same,kon,[1],359000 M⁻¹ s⁻¹
"hSC44.20 IgG (antibody, V domains shown, as the heavy chain of m2 with the stated CDR-H3 changes (Kabat numbering); as the light chain of m1; source: Expi293, transfected, purified (CaptoL, SEC); copies: 2 + 2) VH: EVQLVESGGGLVQPGGSLRLSCTASGFSIDSYGFSWVRQAPGKGLEHIGYLTAGGRAFYASWAKSRSTITRNTNENTVTLKMNSLRAEDTAVYYCAKLGTGSRFAIWGQGTLVTVSS VL: DIQMTQSPSSLSASVGDRVTITCRASQSVWRNKNVAWYQQKPGKAPKRLIYAIASLYSGVPSRFSGSGSGTDFTLTISSLQPEDFATYYCVGHYGSENDAYYAFGQGTKVEIK",Kd,[2],< 1 pM
same,binding result,[3],binds
same,binding result,[4],binds
"hSC44.20 Fab (Fab, V domains shown) VH: EVQLVESGGGLVQPGGSLRLSCTASGFSIDSYGFSWVRQAPGKGLEHIGYLTAGGRAFYASWAKSRSTITRNTNENTVTLKMNSLRAEDTAVYYCAKLGTGSRFAIWGQGTLVTVSS VL: DIQMTQSPSSLSASVGDRVTITCRASQSVWRNKNVAWYQQKPGKAPKRLIYAIASLYSGVPSRFSGSGSGTDFTLTISSLQPEDFATYYCVGHYGSENDAYYAFGQGTKVEIK",Kd,[5],17.5 nM
same,koff,[5],0.0042 s⁻¹
same,kon,[5],240000 M⁻¹ s⁻¹
same,Kd,[6],0.421 nM
same,koff,[6],0.000103 s⁻¹
same,kon,[6],245000 M⁻¹ s⁻¹
"hSC44.20.N32Y^L Fab (Fab, V domains shown) VH: EVQLVESGGGLVQPGGSLRLSCTASGFSIDSYGFSWVRQAPGKGLEHIGYLTAGGRAFYASWAKSRSTITRNTNENTVTLKMNSLRAEDTAVYYCAKLGTGSRFAIWGQGTLVTVSS VL: DIQMTQSPSSLSASVGDRVTITCRASQSVWRNKYVAWYQQKPGKAPKRLIYAIASLYSGVPSRFSGSGSGTDFTLTISSLQPEDFATYYCVGHYGSENDAYYAFGQGTKVEIK",Kd,[5],5.11 nM
same,koff,[5],0.00066 s⁻¹
same,kon,[5],129000 M⁻¹ s⁻¹
same,Kd,[6],0.83 nM
same,koff,[6],0.000186 s⁻¹
same,kon,[6],224000 M⁻¹ s⁻¹
"hSC44.13 IgG (antibody, V domains shown) VH: EVQLVESGGGLVQPGGSLRLSCTASGFSIDSYGFSWVRQAPGKGLEHIGYLTAGGRAFYASWAKSRSTITRNTNENTVTLKMNSLRAEDTAVYYCAKLGTGSPVAIWG VL: DIQMTQSPSSLSASVGDRVTITCRASQSVWRNKNVAWYQQKPGKAPKRLIYAIASLYSGVPSRFSGSGSGTDFTLTISSLQPEDFATYYCVGHYGSENDAYYAFGQGTKVEIK",Kd,[1],0.405 nM
same,koff,[1],7.37e-05 s⁻¹
same,kon,[1],182000 M⁻¹ s⁻¹
"hSC44.28 IgG (antibody, V domains shown) VH: EVQLVESGGGLVQPGGSLRLSCTASGFSIDSYGFSWVRQAPGKGLEHIGYLTAGGRAFYASWAKSRSTITRNTNENTVTLKMNSLRAEDTAVYYCAKLGTGSPLAIWG VL: DIQMTQSPSSLSASVGDRVTITCRASQSVWRNKFVAWYQQKPGKAPKRLIYAIASLYSGVPSRFSGSGSGTDFTLTISSLQPEDFATYYCVGHYGSENDAYYAFGQGTKVEIK",Kd,[1],1.21 nM
same,koff,[1],3e-05 s⁻¹
same,kon,[1],24900 M⁻¹ s⁻¹
"hSC44.3 IgG (antibody, V domains shown) VH: EVQLVESGGGLVQPGGSLRLSCTASGFSIDSYGFSWVRQAPGKGLEHIGYLTAGGRAFYASWAKSRSTITRNTNENTVTLKMNSLRAEDTAVYYCAKIGSGSPVAIWG VL: DIQMTQSPSSLSASVGDRVTITCRASQSVWRNKNVAWYQQKPGKAPKRLIYAIASLYSGVPSRFSGSGSGTDFTLTISSLQPEDFATYYCVGHYGSENDAYYAFGQGTKVEIK",Kd,[1],0.352 nM
same,koff,[1],1.43e-05 s⁻¹
same,kon,[1],40700 M⁻¹ s⁻¹
"hSC44.31 IgG (antibody, V domains shown) VH: EVQLVESGGGLVQPGGSLRLSCTASGFSIDSYGFSWVRQAPGKGLEHIGYLTAGGRAFYASWAKSRSTITRNTNENTVTLKMNSLRAEDTAVYYCAKLGTGTPFAIWGQGTLVTVSS VL: DIQMTQSPSSLSASVGDRVTITCRASQSVWRNKYVAWYQQKPGKAPKRLIYAIASLYSGVPSRFSGSGSGTDFTLTISSLQPEDFATYYCVGHYGSENDAYYAFGQGTKVEIK",Kd,[1],2.71 nM
same,koff,[1],3.98e-05 s⁻¹
same,kon,[1],14700 M⁻¹ s⁻¹
"hSC44.20.N32F^L Fab (Fab, V domains shown) VH: EVQLVESGGGLVQPGGSLRLSCTASGFSIDSYGFSWVRQAPGKGLEHIGYLTAGGRAFYASWAKSRSTITRNTNENTVTLKMNSLRAEDTAVYYCAKLGTGSRFAIWGQGTLVTVSS VL: DIQMTQSPSSLSASVGDRVTITCRASQSVWRNKFVAWYQQKPGKAPKRLIYAIASLYSGVPSRFSGSGSGTDFTLTISSLQPEDFATYYCVGHYGSENDAYYAFGQGTKVEIK",Kd,[5],6.63 nM
same,koff,[5],0.000697 s⁻¹
same,kon,[5],105000 M⁻¹ s⁻¹
same,Kd,[6],0.892 nM
same,koff,[6],0.000177 s⁻¹
same,kon,[6],199000 M⁻¹ s⁻¹
"hSC44.20.N32F^L IgG (antibody, V domains shown, human IgG1, kappa light chain) VH: EVQLVESGGGLVQPGGSLRLSCTASGFSIDSYGFSWVRQAPGKGLEHIGYLTAGGRAFYASWAKSRSTITRNTNENTVTLKMNSLRAEDTAVYYCAKLGTGSRFAIWGQGTLVTVSS VL: DIQLTQSPSSLSASVGDRVTITCRASQSVWRNKFVAWYQQKPGKAPKRLIYAIASLYSGVPSRFSGSGSGTDFTLTISSLQPEDFATYYCVGHYGSENDAYYAFGQGTKVEIK",Kd,[7],1.54 nM
same,koff,[7],5.73e-05 s⁻¹
same,kon,[7],37300 M⁻¹ s⁻¹
same,Kd,[8],1.68 nM
same,koff,[8],1.64e-05 s⁻¹
same,kon,[8],13900 M⁻¹ s⁻¹
"hSC44.20.N32Y^L IgG (antibody, V domains shown, human IgG1, kappa light chain) VH: EVQLVESGGGLVQPGGSLRLSCTASGFSIDSYGFSWVRQAPGKGLEHIGYLTAGGRAFYASWAKSRSTITRNTNENTVTLKMNSLRAEDTAVYYCAKLGTGSRFAIWGQGTLVTVSS VL: DIQLTQSPSSLSASVGDRVTITCRASQSVWRNKYVAWYQQKPGKAPKRLIYAIASLYSGVPSRFSGSGSGTDFTLTISSLQPEDFATYYCVGHYGSENDAYYAFGQGTKVEIK",koff,[7],< 1e-07 s⁻¹
same,kon,[7],35100 M⁻¹ s⁻¹
same,koff,[8],2.61e-05 s⁻¹
same,kon,[8],8880 M⁻¹ s⁻¹
"rSC44 Fab (Fab, V domains shown) VH: QSVKESGRGLVQPGGSLTLTCTASGFSIDSYGFSWVRQAPGKGLEHIGYLTAGGRAFYASWAKSRSTITRNTNENTVTLKMTSLTAADTATYFCAKLGSGNPVAIWGPGTLVTVSS VL: QVLTQTPSFTSAAVGGTVTINCQSSQSVWRNKNLAWYQQKPGQPPKRLIYAIATLDSGVPSRFSGSGSGTQFTLTISDVQCDDAATYYCVGHYGSENDAYYAFGGGTEVVVK",Kd,[5],48.5 nM
same,koff,[5],0.00591 s⁻¹
same,kon,[5],122000 M⁻¹ s⁻¹
same,Kd,[6],0.668 nM
same,koff,[6],0.000135 s⁻¹
same,kon,[6],203000 M⁻¹ s⁻¹
"rSC44 IgG (antibody, V domains shown, rabbit SC44-8 IgG heavy chain; rabbit IgG constant region; as the light chain of m9; Rabbit IgG; also called SC44-8; rSC44-8; copies: 2 + 2) VH: QSVKESGRGLVQPGGSLTLTCTASGFSIDSYGFSWVRQAPGKGLEHIGYLTAGGRAFYASWAKSRSTITRNTNENTVTLKMTSLTAADTATYFCAKLGSGNPVAIWGPGTLVTVSS VL: QVLTQTPSFTSAAVGGTVTINCQSSQSVWRNKNLAWYQQKPGQPPKRLIYAIATLDSGVPSRFSGSGSGTQFTLTISDVQCDDAATYYCVGHYGSENDAYYAFGGGTEVVVK",binding result,[3],binds
same,binding result,[4],binds
